Legend:
[1] = system: AuNP-PVGLIGC-PEG (cleavable)
[2] = biological target: AuNP-GIVGPLC-PEG (noncleavable negative control)
[3] = biological target: AuNP-PVGLIGC-PEG (cleavable); remark: listed apart in the source

Molecule	cleavage of the peptide coating of the AuNP conjugate (UV-vis) [1]	cleavage of the peptide coating of the AuNP conjugate (DLS, zeta potential, UV-vis, TEM, FFF) [2]	cleavage of the peptide coating of the AuNP conjugate (DLS, zeta potential, UV-vis, TEM, FFF) [3]
trypsin	Cleavable AuNPs treated with trypsin did not exhibit cleavage	–	–
human matrix metalloproteinase (MMP-2) (protein) YNFFPRKPKWDKNQITYRIIGYTPDLDPETVDDAFARAFQVWSDVTPLRFSRIHDGEADIMINFGRWEHGDGYPFDGKDGLLAHAFAPGTGVGGDSHFDDDELWTLGEGQVVRVKYGNADGEYCKFPFLFNGKEYNSCTDTGRSDGFLWCSTTYNFEKDGKYGFCPHEALFTMGGNAEGQPCKFPFRFQGTSYDSCTTEGRTDGYRWCGTTEDYDRDKKYGFCPETAMSTVGGNSEGAPCVFPFTFLGNKYESCTSAGRSDGKMWCATTANYDDDRKWGFCPDQGYSLFLVAAHEFGHAMGLEHSQDPGALMAPIYTYTKNFRLSQDDIKGIQELYGASPDIDLGTGPTPTLGPVTPEICKQDIVFDGIAQIRGEIFFFKDRFIWRTVTPRDKPMGPLLVATFWPELPEKIDAVYEAPQEEKAVFFAGNEYWIYSASTLERGYPKPLTSLGLPPDVQRVDAAFNWSKNKKTYIFAGDKFWRYNEVKKKMDPGFPKLIADAWNAIPDNLDAVVDLQGGGHSYFFKGAYYLKLENQSLKSVKFGSIKSDWLGC	–	Non-cleavable control and blocker control AuNPs exhibited no cleavage	cleavable AuNPs were converted to denuded AuNPs following exposure to MMP-2

Source: patent US20130309172
